PMC10246721, “Cryo-EM structures for the Mycobacterium tuberculosis iron-loaded siderophore transporter IrtAB” (Protein & Cell, 2022)

Biological target: T1, IrtA, full length (subunit of full-length Mtb IrtAB) (Mycobacterium tuberculosis H37Rv, UniProt P9WQJ9 1-859)
T1 construct: also called Rv1348
T1 sequence: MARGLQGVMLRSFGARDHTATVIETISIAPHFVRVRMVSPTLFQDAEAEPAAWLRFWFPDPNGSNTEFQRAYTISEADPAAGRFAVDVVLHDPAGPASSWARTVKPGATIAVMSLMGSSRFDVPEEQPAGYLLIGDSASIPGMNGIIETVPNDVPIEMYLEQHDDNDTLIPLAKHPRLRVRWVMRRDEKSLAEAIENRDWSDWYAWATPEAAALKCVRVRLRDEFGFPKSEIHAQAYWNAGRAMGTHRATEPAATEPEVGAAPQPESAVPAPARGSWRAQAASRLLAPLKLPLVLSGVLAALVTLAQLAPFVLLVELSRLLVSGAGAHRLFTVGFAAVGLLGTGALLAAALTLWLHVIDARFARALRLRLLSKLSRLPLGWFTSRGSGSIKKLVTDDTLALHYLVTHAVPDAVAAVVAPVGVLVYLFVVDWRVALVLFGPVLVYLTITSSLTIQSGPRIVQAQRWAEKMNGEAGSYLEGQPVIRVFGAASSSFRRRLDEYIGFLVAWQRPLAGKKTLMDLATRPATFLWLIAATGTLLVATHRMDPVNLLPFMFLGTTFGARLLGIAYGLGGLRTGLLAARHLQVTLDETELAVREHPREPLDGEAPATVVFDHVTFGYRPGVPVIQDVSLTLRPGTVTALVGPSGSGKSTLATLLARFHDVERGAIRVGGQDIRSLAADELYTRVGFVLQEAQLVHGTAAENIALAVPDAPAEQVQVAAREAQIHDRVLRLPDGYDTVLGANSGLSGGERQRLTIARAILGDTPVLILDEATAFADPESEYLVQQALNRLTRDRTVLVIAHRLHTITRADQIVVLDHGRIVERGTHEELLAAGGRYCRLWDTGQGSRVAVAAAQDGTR
Experiment: cryo-EM structure; full-length IrtAB without nucleotide, in digitonin, 20 mmol/L MES pH 6.5, 150 mmol/L NaCl; inward-facing
Conditions: both partners purified

B1: IrtB with C-terminal 10x His tag (subunit of Mtb IrtAB) (natural protein)
chain: MIRTWIALVPNDHRARLIGFALLAFCSVVARAVGTVLLVPLMAALFGEAPQRAWLWLGWLSAATVAGWVLDAVTARIGIELGFAVLNHTQHDVADRLPVVRLDWFTAENTATARQAIAATGPELVGLVVNLVTPLTSAILLPAVIALALLPISWQLGVAALAGVPLLLGALWASAAFARRADTAADKANTALTERIIEFARTQQALRAARRVEPARSLVGNALASQHTATMRLLGMQIPGQLLFSIASQLALIVLAGTTAALTITGTLTVPEAIALIVVMVRYLEPFTAVSELAPALESTRATLGRIGSVLTAPVMVAGSGTWRDGAVVPRIEFDDVAFGYDGGSGPVLDGVSFCLQPGTTTAIVGPSGCGKSTILALIAGLHQPTRGRVLIDGTDVATLDARAQQAVCSVVFQHPYLFHGTIRDNVFAADPGASDDQFAQAVRLARVDELIARLPDGANTIVGEAGSALSGGERQRVSIARALLKAAPVLLVDEATSALDAENEAAVVDALAADPRSRTRVIVAHRLASIRHADRVLFVDDGRVVEDGSISELLTAGGRFSQFWRQQHEAAEWQILAE
notes: also called Rv1349
  binding result: binds
